Residue numbers refer to the chain shown, from its start. Names and notes keep the numbering of the source. “Also recorded” adds a separate entry of the source.
Key:
CsgE = assay: Pulldown assay of different parts of CsgA with CsgE; assay type: binding, E. coli; details: C-terminal MBP tag on CsgA parts
CsgG [1] = assay: Pulldown assay of CsgF variants/domains with CsgG as bait; assay type: binding, E. coli K12; details: CsgF variants with C-terminal MBP tag
Experimental: The procedure of CsgG purification was similar to that of the CsgFG complex. […] After incubation for 30 min, the mixture was loaded into a Strep-Tactin column (IBA). […] Individual CsgG and CsgF variants were purified as input by Strep-Tactin and Ni-NTA, respectively. The samples were analyzed by 15% SDS–PAGE and stained with Coomassie blue.
CsgFGBD-MBP mutant variants were purified as soluble protein by Ni-NTA. CsgG were purified as membrane protein by Strep-Tactin and substituted by amphipole A8-35. CsgFGBD-MBP mutant variants (36 μM) and CsgG nonamer (2 μM) were mixed together at 4 °C for 2 h and then incubated with equal volume of Strep-Tactin beads at 4 °C for 1 h.
Supplementary Figure 5. Interaction mode between CsgFN and CsgG. a, Interaction of CsgFN and CsgG. […] Two adjacent subunits of CsgG are shown in magenta and cyan, respectively. b, Hydrogen bonds and electrostatic interaction between CsgFN and CsgG. Hydrogen bonds are shown as red […]
aromatic residues in CsgG. d, The hydrophobic interaction between CsgFN and CsgG. e, Pulldown assay between the CsgF(C-terminal MBP tag) mutant variants and CsgG. […] Source data are provided as a Source Data file.
(§1) (1 picture or pasted object on this page, not shown here)

CsgB [2] = assay: Pulldown assay of CsgB by CsgF domains; assay type: binding, E. coli; details: CsgB C-terminal MBP tag, CsgF parts N-terminal MBP tag; western blot
CsgA [3] = details: CsgF and CsgB as baits (N-terminal MBP tag), CsgA C-terminal MBP tag
Experimental: The cells were induced with 0.5 mM IPTG for 4 h at 37 °C. […] After incubation for 20 min, the mixture was loaded to a Strep-Tactin column (IBA). The beads were washed four times with a buffer having 25 mM Tris-HCl at pH 8.0, 150 mM NaCl, and eluted in a buffer having 25 mM Tris-HCl at pH 8.0, 150 mM NaCl, and 2.5 mM desthiobiotin. […] The samples were analyzed by 15% SDS–PAGE and detected by western blotting.

[4] = tested on: PapD2 and CpxP passage through CsgG; details: cited from earlier work
Excerpt: Tyr51, Asn55, and Phe56 residues of CsgG were reported to constitute three stacked concentric rings to form a pore structure in the nonameric channel, which was essential to limit the passage of the folded proteins[22] (Fig. 2a).

CsgB [5] = details: cited from earlier work
Excerpt: CsgFC was flexible, and was observed as fuzzy densities on the extracellular side of the CsgFG channel (Fig. 1c and Supplementary Fig. 1d), which should be responsible for interacting with CsgB. To further clarify CsgF function, we first performed a pulldown assay using CsgG as a bait. […] Therefore, CsgF ...

[6] = target: the molecule itself; assay: cryo-EM structure; CsgFG complex co-expressed from the CsgEFG operon, purified in LDAO; single-particle cryo-EM, 3.8 Å without symmetry, 3.38 Å with C9 symmetry
[7] = tested on: curli production in E. coli K-12 strain BW25113; assay: Congo red secretion assay of CsgF, CsgA or CsgG variants; assay type: cell-based, E. coli K-12 BW25113
Experimental: The E. coli K-12 strain BW25113 wild type (WT) and mutants were cultured overnight in LB at 37 °C. To induce curli production, 5 μl sample was spotted on YESCA plates (10 g/L casamino acids, 1 g/L yeast extract, and 20 g/L Bacto agar) supplemented with 100 μg/ml ampicillin and 90 μg/ml Congo red. The plates were incubated at 26 °C for 48 h. […] For overexpression assay in the ΔCsgE mutant strain, 3 μM IPTG was also supplemented in the YESCA plates.

CsgG nonamer = target: T1, CsgG nonamer (Escherichia coli, UniProt P0AEA2); assay type: binding, E. coli K12; details: given in reply to Reviewer #1
T1 construct: made in house; host or cells: E. coli BL21 (DE3)
T1 sequence (P0AEA2 whole entry, looked up): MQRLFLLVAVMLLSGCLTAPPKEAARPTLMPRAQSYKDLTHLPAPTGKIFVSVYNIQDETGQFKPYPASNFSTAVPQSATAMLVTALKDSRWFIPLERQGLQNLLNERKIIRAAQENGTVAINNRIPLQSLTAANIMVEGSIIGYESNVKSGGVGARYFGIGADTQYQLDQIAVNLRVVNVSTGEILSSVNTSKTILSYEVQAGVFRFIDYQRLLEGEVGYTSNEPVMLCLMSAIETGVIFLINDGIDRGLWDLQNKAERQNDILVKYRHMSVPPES
Excerpt: as §1
are provided as a Source Data file.

CsgG [8] = assay: Pulldown assay of CsgE with CsgG; assay type: binding, E. coli; details: western blot
Experimental: The CsgE and CsgG were transformed in E. coli BL21 (DE3) strain. […] After incubation for 30 min, CsgE alone and CsgE-CsgG mixture were loaded to Strep-Tactin columns (IBA), respectively. The beads were washed for four times with a buffer having 25 mM Tris pH 8.0, 150 mM NaCl and 0.02% DDM and then eluted by an elution buffer (25 mM Tris pH 8.0, 150 mM NaCl, 0.02% DDM and 25 mM desthiobiotin). […] The samples were analyzed using 15% SDS–PAGE and detected using western blotting.

CsgA [9] = details: cited from earlier work
[10] = target: T2, Wild-type CsgG (expressed alone) (E. coli K12, UniProt P0AEA2 16-277); assay: ITC
T2 chain: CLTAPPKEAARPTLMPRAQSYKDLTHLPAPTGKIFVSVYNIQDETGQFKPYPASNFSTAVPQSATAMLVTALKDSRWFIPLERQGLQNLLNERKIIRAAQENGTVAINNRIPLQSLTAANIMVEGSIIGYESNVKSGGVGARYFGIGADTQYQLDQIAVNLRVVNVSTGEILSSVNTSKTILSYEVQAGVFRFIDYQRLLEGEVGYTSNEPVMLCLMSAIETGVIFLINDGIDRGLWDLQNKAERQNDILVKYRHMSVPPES

[11] = target: T3, Wild-type CsgG (expressed alone) (E. coli K12, UniProt P0AEA2 16-277); assay: ITC; MicroCal ITC200, 25 °C; nonameric CsgG in amphipole A8-35 in the cell (2 or 10 μM), CsgFN-MBP (200 μM), CsgAN6 peptide (1 mM) or PeptideN (60 µM) in the syringe; 10 mM HEPES pH 7.5, 50 mM NaCl; details: both partners purified
T3 construct: also called CsgG nonamer; nonameric CsgG
T3 sequence (looked up): T2 chain

CsgAR1-5: five C-terminal repeating units of CsgA
interaction of CsgA part with CsgE in pulldown (CsgE): CsgE bound to CsgAR1-5

CsgF: soluble accessory factor of the curli secretion system
CsgF-CsgG interaction in pulldown (CsgG [1]): CsgG can pulldown both the full-length CsgF and CsgFN | pulldown of CsgB (CsgB [2]): full-length CsgF and CsgFC could | interaction with CsgA in pulldown (CsgA [3]): did not directly interact with CsgA | leakage of PapD2 and CpxP in the presence of CsgF [4]: considerably reduced leakage | binding to CsgB (CsgB [5]): can also bind to CsgB

B1: CsgFC: CsgF C-terminal domain (residues 37–119) (protein)
chain: YNDDFGIETPSALDNFTQAIQSQILGGLLSNINTGKPGRMVTNDYIVDIANRDGQLQLNVTDRKTGQTSTIQVSGLQNNSTDF
modifications: left off: MBP, C-terminal, kept | His tag (from the Ni-NTA purification of the input), end not stated, state not stated
CsgF-CsgG interaction in pulldown (CsgG [1]): unlikely to interact with CsgG | pulldown of CsgB (CsgB [2]): full-length CsgF and CsgFC could

B2: CsgF (from the CsgEFG operon) (natural protein, E. coli K12, UniProt P0AE98 20-138, looked up)
chain: GTMTFQFRNPNFGGNPNNGAFLLNSAQAQNSYKDPSYNDDFGIETPSALDNFTQAIQSQILGGLLSNINTGKPGRMVTNDYIVDIANRDGQLQLNVTDRKTGQTSTIQVSGLQNNSTDF
notes: also called CsgFN (residues 1-36) and CsgFC (residues 37-119) are its domains; source: E. coli BL21 (DE3), co-expressed from the CsgEFG operon, co-purified with CsgG (Strep-Tactin, SEC)
stoichiometry N [6]: 9 subunits

B3: CsgFN17R: N17R-mutated CsgF (protein, UniProt P0AE98 20-138, looked up, variant N17R)
Curli production …: B2 chain with N17R
Congo red secretion phenotype (curli formation) ([7]; CsgF variants in ∆CsgF strain, YESCA/Congo red plates, 26 °C, 48 h): loss of the Congo red phenotype | Congo red secretion phenotype ([7]; N17R-mutated CsgF expressed in wild type (WT) strain): largely reduced Congo red phenotype

B4: CsgE: soluble accessory factor that binds CsgG (protein)
chain: VEVEVPGLLTDHTVSSIGHDFYRAFSDKWESDYTGNLTINERPSARWGSWITITVNQDVIFQTFLFPLKRDFEKTVVFALIQTEEALNRRQINQALLSTGDLAHDEF
modifications: left off: His tag (from the Ni-NTA purification of the input), end not stated, state not stated
CsgE-CsgG ITC interaction strength (in words) (CsgG nonamer): mM level | interaction of CsgE with CsgG in pulldown (CsgG [8]): CsgG could pull-down CsgE; also recorded: interacts with the CsgG channel | inhibition of CsgA self-assembly into amyloid fibers (CsgA [9]): inhibit self-assembly of CsgA into amyloid fibers

B5: PeptideN_(N17R) (peptide)
peptide: GTMTFQFRNPNFGGNPR
notes: source: synthetic peptide
Kd [10]: 0.0141 µM | binding result [11]: binds

B6: CsgAN6 peptide (peptide)
peptide: GVVPQY
Kd [11]: 23.8 µM

B7: CsgG (from the CsgEFG operon construct with C-terminal strep-tag II) (natural protein, E. coli K12, UniProt P0AEA2 16-277, looked up)
chain: T2 chain
notes: also called CsgG channel; CsgG subcomplex; source: E. coli BL21 (DE3), co-expressed from the CsgEFG operon; membrane fraction solubilised in DDM/LDAO, purified (Strep-Tactin, SEC); not shown: strep-tag II, C-terminal, kept
stoichiometry N [6]: 9 subunits
